Target: GST-SIRT6 K33R (human, UniProt Q8N6T7 1-355, K33R)
Assay: pull-down

Sequence of GST-SIRT6 K33R (Q8N6T7 whole entry K33R): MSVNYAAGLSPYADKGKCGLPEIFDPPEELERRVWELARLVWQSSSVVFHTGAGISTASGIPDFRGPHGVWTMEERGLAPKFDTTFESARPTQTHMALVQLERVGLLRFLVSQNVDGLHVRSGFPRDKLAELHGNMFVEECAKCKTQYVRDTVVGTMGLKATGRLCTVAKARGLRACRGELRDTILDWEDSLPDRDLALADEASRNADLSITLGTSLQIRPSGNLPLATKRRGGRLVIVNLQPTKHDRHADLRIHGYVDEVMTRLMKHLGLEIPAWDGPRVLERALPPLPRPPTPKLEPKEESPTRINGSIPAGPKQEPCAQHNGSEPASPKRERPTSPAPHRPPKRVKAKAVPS

- binding result: binds
B1: biotin-labeled C-terminal γH2AX peptide (peptide)
peptide: GKKATQASQEY

From doi:10.1101/2020.02.01.930172 (bioRxiv, 2020)
